Like-named read-outs stand apart in the source and are kept apart here.
Legend:
[1] = biological target: T1, human Claudin 18.2 (CLDN18.2) (human, UniProt P56856-2 1-261); test: cell-based or functional assay
[2] = biological target: T1, human Claudin 18.2 (CLDN18.2); test: cell-based or functional assay; remark: listed apart in the source
[3] = biological target: T1, human Claudin 18.2 (CLDN18.2); test: cell-based or functional assay; remark: listed apart in the source
[4] = biological target: T1, human Claudin 18.2 (CLDN18.2); test: cell-based or functional assay; remark: listed apart in the source
[5] = biological target: T1, human Claudin 18.2 (CLDN18.2); test: FACS on CHO-CLDN18.2 cells
[6] = biological target: T1, human Claudin 18.2 (CLDN18.2); test: cell-based or functional assay; remark: listed apart in the source
[7] = biological target: T1, human Claudin 18.2 (CLDN18.2); test: cell-based or functional assay; remark: listed apart in the source
[8] = biological target: T1, human Claudin 18.2 (CLDN18.2); test: FACS on CHO-CLDN18.2 cells; remark: listed apart in the source
[9] = biological target: T1, human Claudin 18.2 (CLDN18.2); test: FACS on CHO-CLDN18.2 cells; remark: listed apart in the source

ADCC EC50, NUGC4-CLDN18.2, PBMC [2]	CDC EC50, human serum, CHO-CLDN18.2 [3]	% ADCC @ 6.67 nM, NCI-N87-CLDN18.2, FcR-TANK [4]	ADCC EC50, NCI-N87-CLDN18.2, FcR-TANK [4]	ADCC EC50, NCI-N87-18.2 cells, FcR-TANK effectors [6]	Binder	% specific cytotoxicity @ 6.67 nM, NUGC4-CLDN18.2, PBMC [2]	other results
					hz282-11-V2 (antibody, V domains shown) VH: QVQLQESGPGLVKPSETLSLTCTVSGFSLTSYNVYWIRQPPGKGLEWIGVIWNTGATRYNSALKSRVTISKDTSKSQVSLKLSSVTAADTAVYYCARDSAMPAIPFAYWGQGTLVTVSS VL: DIQMTQSPSSLSASVGDRVTITCKSSQSLFGSVRQKNYLAWYQQKPGKAPKLLIYLASTRESGVPSRFSGSGSGTDFTLTISSLQPEDFATYYCQQYYDIPWTFGGGTKVEIK		% internalization, NCI-N87-CLDN18.2, 37 C 2 h [1]: > 50%; % internalization, NUGC4-CLDN18.2, 37 C 2 h [1]: > 80%
					hz282-15-V2 (antibody, V domains shown) VH: QVQLQESGPGLVKPSETLSLTCTVSGFSLTSYNVYWIRQPPGKGLEWIGVIWNTGATRYNSALKSRVTISKDTSKSQVSLKLSSVTAADTAVYYCARDSAMPAIPFAYWGQGTLVTVSS VL: DIQMTQSPSSLSASVGDRVTITCKSSQSLFGSVRQKNYLAWYQQKPGKSPKLLIYLASTRESGVPDRFSGSGSGTDFTLTISSLQPEDFAKYYCQQYYDIPWTFGGGTKVEIK		% internalization, NCI-N87-CLDN18.2, 37 C 2 h [1]: > 50%; % internalization, NUGC4-CLDN18.2, 37 C 2 h [1]: > 80%
7.18 nM	1.66 nM	13.3%	0.44 nM		413H9F8-cp1 (antibody, V domains shown, humanized IgG; constant regions not specified) VH: EVQLVESGGGLVQPGGSLRLSCAASGFTFSSFGMHWVRQAPGKGLEWVSYISSGSSPIYYVDKLKGRFTISRDNAKNSLYLQMNSLRAEDTAVYYCARAGYAVRNALDYWGQGTLVTVSS VL: EIVMTQSPPTLSLSPGERVTLSCKSSQSLLNVGNQKNYLAWYQQKPGQAPRLLIYGASTRESGIPARFSGSGSGTDFTLTISSLQPEDFAVYYCQNDLFYPLTFGGGTKVEIK	31.5%	EC50 [5]: 2.6 nM
	0.76 nM	13.9%	0.33 nM	7.84 nM	413H9F8-VL-S32V (antibody, human IgG1, kappa, V domains shown, chimeric human IgG1, PTM site removed; also called 413H9F8-VL-32V; 413H9F8-VL-532V) VH: DVQLVESGGGSVQPGGSRRLSCAASGFTFSSFGMHWVRQAPEKGLEWVAYISSGSSPIYYVDKLKGRFTVSRDNPKNTLFLQMTSLRSEDTAMYYCARAGYAVRNALDYWGQGTSITVSS VL: DIVMTQSPSSLSVSVGEKVTLSCKSSQSLLNVGNQKNYLAWYQQKTGQPPKLLIYGASTRESGVPDRFIGSGSGTDFTLTISSVQAEDLAVYFCQNDLFYPLTFGAGTKLELKR		EC50 [5]: 1.84 nM; % specific cytotoxicity @ 6.67 nM, NUGC4-CLDN18.2, PBMC [7]: 31.4%; ADCC EC50, NUGC4-CLDN18.2 cells, PBMC [7]: 7.69 nM; EC50 [8]: 2.14 nM
					413H9F8-VL-S32V-V2-DL (antibody, V domains shown) VH: DVQLVESGGGSVQPGGSRRLSCAASGFTFSSFGMHWVRQAPEKGLEWVAYISSGSSPIYYVDKLKGRFTVSRDNPKNTLFLQMTSLRSEDTAMYYCARAGYAVRNALDYWGQGTSITVSS VL: DIVMTQSPSSLSVSVGEKVTLSCKSSQSLLNVGNQKNYLAWYQQKTGQPPKLLIYGASTRESGVPDRFIGSGSGTDFTLTISSVQAEDLAVYFCQNDLFYPLTFGAGTKLELK		% internalization, NCI-N87-CLDN18.2, 37 C 2 h [1]: < 30%; % internalization, NUGC4-CLDN18.2, 37 C 2 h [1]: < 15%
				8.56 nM	413H9F8-VL-S32L (antibody, human IgG1, kappa, V domains shown) VH: DVQLVESGGGSVQPGGSRRLSCAASGFTFSSFGMHWVRQAPEKGLEWVAYISSGSSPIYYVDKLKGRFTVSRDNPKNTLFLQMTSLRSEDTAMYYCARAGYAVRNALDYWGQGTSITVSS VL: DIVMTQSPSSLSVSVGEKVTLSCKSSQSLLNLGNQKNYLAWYQQKTGQPPKLLIYGASTRESGVPDRFIGSGSGTDFTLTISSVQAEDLAVYFCQNDLFYPLTFGAGTKLELKR		
11.3 nM	1.28 nM	10.8%	0.41 nM		364D1A7-H3L1 (antibody, V domains shown, humanized IgG; constant regions not specified) VH: EVQLVESGGGLVQPGGSLRLSCAASGFTFSSFGMHWVRQAPGKGLEWVAYISSGSGSIYYADTVKGRFTLSRDNPKNSLYLQMNSLRAEDTAVYYCATSYYYGNALEYWGQGTTVTVSS VL: DIVMTQSPDSLAVSLGERATINCKSSQSLFNVGNQKNYLTWYQQKPGQPPKLLIYWASTRKSGVPDRFSGSGSGTDFTLTISSLQAEDVAVYYCQNVYSYPLTFGGGTKVEIK	26.2%	EC50 [9]: 4.22 nM
				9.56 nM	364D1A7-VL-S32L (antibody, human IgG1, kappa, V domains shown) VH: DVQLVESGGGLVQPGGSRKLSCAASGFTFSSFGMHWVRQAPEKGLEWVAYISSGSGSIYYADTVKGRFTLSRDNPKNTLFLQMTSLRSEDTAIYYCATSYYYGNALEYWGQGTSVTVSS VL: DVVLTQSPSSLTVTEGEKVSMSCKSSQSLFNLGNQKNYLTWYQQKPGQTPTLLIYWASTRKSGVPDRFTGSGSGTDFTLTINTVQAEDLAVYYCQNVYSYPLTFGAGTKLDLKR		
	1.49 nM	15.3%	0.34 nM	12 nM	364D1A7-VL-S32V (antibody, human IgG1, kappa, V domains shown, chimeric human IgG1, PTM site removed; also called 364D1A7-VL-32V) VH: DVQLVESGGGLVQPGGSRKLSCAASGFTFSSFGMHWVRQAPEKGLEWVAYISSGSGSIYYADTVKGRFTLSRDNPKNTLFLQMTSLRSEDTAIYYCATSYYYGNALEYWGQGTSVTVSS VL: DVVLTQSPSSLTVTEGEKVSMSCKSSQSLFNVGNQKNYLTWYQQKPGQTPTLLIYWASTRKSGVPDRFTGSGSGTDFTLTINTVQAEDLAVYYCQNVYSYPLTFGAGTKLDLKR		EC50 [9]: 3.87 nM; % specific cytotoxicity @ 6.67 nM, NUGC4-CLDN18.2, PBMC [7]: 26.6%; ADCC EC50, NUGC4-CLDN18.2 cells, PBMC [7]: 6.36 nM
5.97 nM	1.06 nM	14.1%	0.31 nM		413H9F8-H2L1 (antibody, V domains shown, humanized IgG; constant regions not specified) VH: EVQLVESGGGLVQPGGSLRLSCAASGFTFSSFGMHWVRQAPGKGLEWVAYISSGSSPIYYVDKLKGRFTISRDNAKNSLYLQMNSLRAEDTAVYYCARAGYAVRNALDYWGQGTLVTVSS VL: DIVMTQSPDSLAVSLGERATINCKSSQSLLNVGNQKNYLAWYQQKPGQPPKLLIYGASTRESGVPDRFSGSGSGTDFTLTISSLQAEDVAVYYCQNDLFYPLTFGGGTKVEIK	34.3%	EC50 [8]: 2.43 nM
8.98 nM	0.78 nM	15.1%	0.47 nM		413H9F8-H1L1 (antibody, V domains shown, humanized IgG; constant regions not specified) VH: EVQLVESGGGLVQPGGSLRLSCAASGFTFSSFGMHWVRQAPGKGLEWVSYISSGSSPIYYVDKLKGRFTISRDNAKNSLYLQMNSLRAEDTAVYYCARAGYAVRNALDYWGQGTLVTVSS VL: DIVMTQSPDSLAVSLGERATINCKSSQSLLNVGNQKNYLAWYQQKPGQPPKLLIYGASTRESGVPDRFSGSGSGTDFTLTISSLQAEDVAVYYCQNDLFYPLTFGGGTKVEIK	27%	EC50 [8]: 2.31 nM
4.38 nM	1.07 nM	16.3%	0.37 nM		413H9F8-H1L3 (antibody, V domains shown, humanized IgG; constant regions not specified) VH: EVQLVESGGGLVQPGGSLRLSCAASGFTFSSFGMHWVRQAPGKGLEWVSYISSGSSPIYYVDKLKGRFTISRDNAKNSLYLQMNSLRAEDTAVYYCARAGYAVRNALDYWGQGTLVTVSS VL: DIVMTQSPDSLAVSLGERATINCKSSQSLLNVGNQKNYLAWYQQKPGQPPKLLIYGASTRESGVPDRFIGSGSGTDFTLTISSLQAEDVAVYFCQNDLFYPLTFGGGTKVEIK	34.6%	EC50 [8]: 2.38 nM
					Xi282A12F3(T62A)-V2-DL (antibody, V domains shown) VH: QVQLKESGPVLVQPSQTLSLTCTVAGFSLTSYNVYWVRQPPGKGLEWMGVIWNTGATRYNSALKSRLSISKDTSKSQVFLKMNSLQTEDTATYYCARDSAMPAIPFAYWGQGTLVTVSS VL: DIVMTQSPSSLAVSAGETVTINCKSSQSLFGSVRQKNYLAWYQQKPGQSPKLLIYLASTRESGVPDRFIGSGSGTDFTLTISSVQAEDLAKYYCQQYYDIPWTFGGGTKLELK		% internalization, NCI-N87-CLDN18.2, 37 C 2 h [1]: > 50%; % internalization, NUGC4-CLDN18.2, 37 C 2 h [1]: > 80%
		2.3%	1.81 nM	159 nM	357B8F8-VH-S61I-VL-S32I (antibody, human IgG1, kappa, V domains shown) VH: QVQLKESGPGLVAPSQSLSITCTVSGFSLTSYGVHWVRQPPGKGLEWLGVIWPGGNTNYNIALMSRLSISKDNSKSQVFLKMNSLQTDDTAMYYCARDRRLAMDYWGQGTSVTVSS VL: DIVMTQSPSSLTVTAGEKVTMTCKSSQSLLNIGNQKNYLTWYQQKPGQPPKLLIYWASTRESGVPDRFTGSGSGTDFTLTISILQAEDLAVYYCQNDYSYPFTFGSGTKLEIKR		% specific cytotoxicity @ 6.67 nM, NUGC4-CLDN18.2, PBMC [7]: 19.6%; ADCC EC50, NUGC4-CLDN18.2 cells, PBMC [7]: 4.87 nM

— US20210380680A1 (ZLLP, published 2021)
